From patent US20120156198A1 (Hoffmann-La Roche, published 2012)

Assays:
[1] = target: T1, cynomolgus IL-18Rα/IL-18Rβ on transfected cells (cynomolgus, UniProt A0A2K5V3J9 19-540; A0A7N9D6S0 20-598); experiment: cell ELISA on CHO-K1 cells expressing cynomolgus IL-18Rα+β
T1 construct: whole, on cells; also called CHO CyIL-18Rα + β
T1 sequence 1: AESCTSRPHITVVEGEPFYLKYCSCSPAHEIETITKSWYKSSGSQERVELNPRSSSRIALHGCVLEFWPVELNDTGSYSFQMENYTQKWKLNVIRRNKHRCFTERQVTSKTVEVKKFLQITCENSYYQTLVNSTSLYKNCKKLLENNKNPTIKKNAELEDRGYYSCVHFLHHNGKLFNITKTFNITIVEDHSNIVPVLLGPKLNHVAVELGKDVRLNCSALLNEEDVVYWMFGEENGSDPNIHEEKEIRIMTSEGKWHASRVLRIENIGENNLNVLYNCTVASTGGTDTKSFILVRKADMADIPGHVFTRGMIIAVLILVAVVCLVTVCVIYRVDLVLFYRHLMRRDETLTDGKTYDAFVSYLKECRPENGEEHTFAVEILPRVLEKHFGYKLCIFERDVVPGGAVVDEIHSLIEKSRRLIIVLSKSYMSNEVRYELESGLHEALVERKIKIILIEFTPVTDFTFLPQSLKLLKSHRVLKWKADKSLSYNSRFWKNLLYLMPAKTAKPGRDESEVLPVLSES
T1 sequence 2: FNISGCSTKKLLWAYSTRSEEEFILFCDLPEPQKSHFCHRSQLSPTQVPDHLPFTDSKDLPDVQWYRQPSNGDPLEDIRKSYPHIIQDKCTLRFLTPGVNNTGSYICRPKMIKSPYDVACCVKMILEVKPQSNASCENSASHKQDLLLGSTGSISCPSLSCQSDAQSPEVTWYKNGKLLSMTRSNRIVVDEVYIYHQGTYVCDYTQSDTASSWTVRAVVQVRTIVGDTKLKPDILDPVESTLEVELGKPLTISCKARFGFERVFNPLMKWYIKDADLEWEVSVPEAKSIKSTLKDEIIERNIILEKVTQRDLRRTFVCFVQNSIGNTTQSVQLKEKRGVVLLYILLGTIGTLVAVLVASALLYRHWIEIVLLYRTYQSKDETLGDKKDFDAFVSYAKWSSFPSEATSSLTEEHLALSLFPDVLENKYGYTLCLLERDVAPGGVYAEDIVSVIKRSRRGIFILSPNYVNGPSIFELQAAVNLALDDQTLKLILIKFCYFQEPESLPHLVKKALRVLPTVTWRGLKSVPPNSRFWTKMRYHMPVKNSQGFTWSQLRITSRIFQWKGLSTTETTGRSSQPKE
Protocol: (§1) The recombinant cell lines CHO-K1 expressing cynomolgus IL-18Rα or cynomolgus IL-18Rα+β were stained with the Mab_IL-18R antibodies in a cell ELISA. Controls are CHO-K1 untransfected cells. Cells were grown in F-12 medium (GIBCO) with Glutamax-1 (GIBCO Cat. No. 31331-028)+10% FCS (PAN Cat. No. 2802-P920707). For cultivation of the recominant cell lines 250 μg/ml G418 (Geneticin, GIBCO, Cat. No. 10131-019) was added. As control antibody anti hIL-18Ralpha Antibody Mab840 (Mouse monoclonal IgG1 from R&D Systems, Cat. MAB 840) and as detection antibody goat anti-mouse IgG (H+L)-HRP conjugate (BioRad) was added. For running the assay, on day 1 2×10⁴ CHO_CynoIL-18Rα, CHO_CynoIL-18Rα+β or untransfected CHO cells in 50 μl F-12/well were seeded in a 96-well plate and incubated overnight at 37° C. On day 2, 50 μl supernatant or (2×) purified antibody diluted in medium or 50 μl Hybridoma supernatant were added and incubated for 2 h at 4° C. Supernatant was aspirated and 100 μl/well Glutaraldehyde fixing solution (25% stock solution Grade EM; final concentration=0.05% in PBS) was added and incubated for 10 minutes at room temperature. For washing 2 times 200 μl PBS/well/wash was added and removed. 50 μl of ELISA detection-antibody diluted in ELISA blocking reagent (ELISA blocking stock reagent diluted 1:10 in PBS) was added. […] The plates were measured at 450 nm-620 nm using an ELISA reader (TECAN).

[2] = target: T2, cynomolgus IL-18Rα on CHO-K1 cells (cynomolgus, UniProt A0A2K5V3J9 19-540); experiment: cell ELISA on CHO-K1 cells expressing cynomolgus IL-18Rα
T2 construct: whole, on cells; also called CHO CyIL-18Rα
T2 sequence: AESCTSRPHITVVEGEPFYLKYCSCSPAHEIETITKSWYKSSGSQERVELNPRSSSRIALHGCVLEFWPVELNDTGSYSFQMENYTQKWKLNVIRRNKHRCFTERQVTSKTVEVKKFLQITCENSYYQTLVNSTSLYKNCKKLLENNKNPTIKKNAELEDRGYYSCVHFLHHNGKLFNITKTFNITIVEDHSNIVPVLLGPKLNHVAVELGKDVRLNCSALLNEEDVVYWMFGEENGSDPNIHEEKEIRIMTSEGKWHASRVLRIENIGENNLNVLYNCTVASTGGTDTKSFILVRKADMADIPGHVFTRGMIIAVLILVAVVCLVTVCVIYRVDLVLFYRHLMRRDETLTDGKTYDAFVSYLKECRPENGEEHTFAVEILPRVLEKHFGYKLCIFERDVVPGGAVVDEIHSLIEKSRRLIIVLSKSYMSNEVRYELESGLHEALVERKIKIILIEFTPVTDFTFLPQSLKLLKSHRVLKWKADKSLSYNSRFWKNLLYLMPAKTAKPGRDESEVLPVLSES
Protocol: as §1

B1: Mab 1G12 (antibody, V domains shown)
VH: QVQLQQPGAELVKPGASVRMSCKTSDYTFTSNWMHWVKQRPGQGLEWIGTIDPSDSYTYYNQKFKGRATLTVDTSSSTAYMQLSSLTSEDSAVYYCTTSGDYDADRYFDVWGAGTTVTVSS
VL: DIVLTQSPASLGVSLGQRATISCRASKSVSTSGDSYMHWYQQKPGQSPKLLIYLASNLESGVPARFSGSGSGTDFTLNIHPVEEEDAATYYCQQSRELPLSFGAGTKLELK
notes: Monoclonal antibody from immunized NMRI mice; detected with anti-mouse IgG1-PE / anti-mouse IgG; also called F20.1G12; monoclonal antibody 1G12
EC50 [1]: 0.015 µg/mL | EC50 [2]: 0.0186 µg/mL
